Measured values taken from patent US20120316071A1 (published 2012).
Changes are numbered by the printed parent chain. In names and notes the source's numbering stands. Values belong to the binder of their own block, whether it stands above or below them.

Assays:
[1] = molecular target: T1, rHuman CD44/Fc Chimera, CF (R&D Systems Cat#3660-CD) (human, UniProt P16070 21-220); test: ECL Multispot (MSD) assay; antigen spotted on plate, Fab in solution;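 further: fab bound 1 h at 20 °C, detected by TAG-labelled antibody electrochemiluminescence, signal relative to each well's blank, ratio of 4 or more marks a hit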
T1 construct: Bought reagent

[2] = molecular target: T2, rHuman IGF-1 sR, CF (R&D Systems Cat#391-GR) (human, UniProt P08069 31-932); test: as above
T2 construct: Bought soluble receptor; the column head 'IGF-1' means IGF-1 sR; also called insulin-like growth factor-1 soluble receptor

[3] = molecular target: T3, rHuman P-Cadherin/Fc Chimera, CF (R&D Systems Cat#861-PC) (human, UniProt P22223 108-654); test: as above
T3 construct: Bought reagent

[4] = molecular target: T4, rHuman Erythropoietin R/Fc Chimera, CF (R&D Systems Cat#963-ER) (human, UniProt P19235 25-250); test: as above
T4 construct: Bought reagent; also called EPO R; Epo R/Fc
T4 sequence (looked up): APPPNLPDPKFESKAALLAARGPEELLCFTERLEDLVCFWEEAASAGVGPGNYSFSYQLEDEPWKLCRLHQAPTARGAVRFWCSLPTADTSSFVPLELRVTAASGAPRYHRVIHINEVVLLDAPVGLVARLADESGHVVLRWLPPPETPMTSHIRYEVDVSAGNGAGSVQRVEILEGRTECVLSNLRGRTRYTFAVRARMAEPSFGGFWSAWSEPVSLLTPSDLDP

[5] = molecular target: T5, rHuman ErbB2/Fc Chimera, CF (R&D Systems Cat#1129-ER) (human, UniProt P04626 23-652); test: as above
T5 construct: Bought reagent; also called human epidermal growth factor 2 receptor

[6] = molecular target: T6, rHuman EGF R/Fc Chimera, CF (R&D Systems Cat#344-ER) (human, UniProt P00533 25-645); test: as above
T6 construct: Bought reagent; also called epidermal growth factor receptor

[7] = molecular target: T7, rHuman HGF R/c-MET/Fc Chimera, CF (R&D Systems Cat#358-MT/CF) (human, UniProt P08581 25-932); test: as above
T7 construct: Bought reagent; also called HGF R/Fc; hepatocyte growth factor receptor

[8] = molecular target: T8, rHuman Notch-1/Fc Chimera, CF (R&D Systems Cat#3647-TK) (human, UniProt P46531 19-526); test: as above
T8 construct: Bought reagent

[9] = molecular target: T9, Recombinant Human DLL4 (delta-like protein 4) (human, UniProt Q9NR61 27-524); test: 96-well plate ECL (MSD) assay, DLL4 immobilised, Fab at 10 nM
T9 construct: also called rHuman DLL4; Delta-like 4

[10] = molecular target: T9, Recombinant Human DLL4 (delta-like …); test: ELISA, DLL4 coated on the plate, Fab at 100 nM, absorbance at 450 nm
[11] = molecular target: T10, Recombinant Human DLL4 (delta-like protein 4) (human, UniProt Q9NR61 27-524); test: ELISA, DLL4-coated plate, Fab in solution
T10 construct: Bought recombinant human DLL4 (R&D Systems Cat#1506-D4/CF); also called rHuman DLL4; Delta-like 4

[12] = molecular target: T10, Recombinant Human DLL4 (delta-like …); test: ECL (MSD) binding assay, DLL4 on plate, Fab in solution
[13] = molecular target: T11, Recombinant Human DLL4 (delta-like protein 4) (human, UniProt Q9NR61 27-524); test: ELISA, Fab on plate-coated DLL4
T11 construct: Bought recombinant human DLL4 (R&D Systems Cat#1506-D4/CF); also called rHuman DLL4; Delta-like 4

[14] = molecular target: T11, Recombinant Human DLL4 (delta-like …); test: ECL (MSD) binding assay, Fab on immobilized DLL4
[15] = molecular target: T12, Recombinant Human DLL4 (delta-like protein 4) (human, UniProt Q9NR61 27-524); test: ELISA, Fab on coated DLL4, absorbance at 450 nm
T12 construct: also called rHuman DLL4; Delta-like 4

[16] = molecular target: T12, Recombinant Human DLL4 (delta-like …); test: ECL (MSD) binding assay, Fab on immobilised recombinant human DLL4
[17] = molecular target: T13, Recombinant Human DLL4 (R&D Systems Cat#1506-D4/CF) (human, UniProt Q9NR61 27-524); test: ELISA, Fab on plate-coated DLL4, absorbance at 450 nm
T13 construct: also called rHuman DLL4; delta-like protein 4

[18] = molecular target: T13, Recombinant Human DLL4 (R&D Systems …); test: ECL (MSD) multispot binding assay, Fab on immobilized recombinant human DLL4
[19] = molecular target: T12, Recombinant Human DLL4 (delta-like …); test: ELISA on coated DLL4, Fab at 25 nM (2-fold serial dilution)
[20] = molecular target: T12, Recombinant Human DLL4 (delta-like …); test: ELISA on coated DLL4, Fab at 50 nM (2-fold serial dilution)
[21] = molecular target: T12, Recombinant Human DLL4 (delta-like …); test: ELISA on coated DLL4, Fab at 100 nM (2-fold serial dilution)
[22] = molecular target: T12, Recombinant Human DLL4 (delta-like …); test: ELISA on coated DLL4, Fab at 12.5 nM (2-fold serial dilution)
[23] = molecular target: T12, Recombinant Human DLL4 (delta-like …); test: ELISA on coated DLL4, Fab at 6.25 nM (2-fold serial dilution)
[24] = molecular target: T12, Recombinant Human DLL4 (delta-like …); test: ELISA on coated DLL4, Fab at 3.125 nM (2-fold serial dilution)

T7 sequence (P08581 25-932, change not shown): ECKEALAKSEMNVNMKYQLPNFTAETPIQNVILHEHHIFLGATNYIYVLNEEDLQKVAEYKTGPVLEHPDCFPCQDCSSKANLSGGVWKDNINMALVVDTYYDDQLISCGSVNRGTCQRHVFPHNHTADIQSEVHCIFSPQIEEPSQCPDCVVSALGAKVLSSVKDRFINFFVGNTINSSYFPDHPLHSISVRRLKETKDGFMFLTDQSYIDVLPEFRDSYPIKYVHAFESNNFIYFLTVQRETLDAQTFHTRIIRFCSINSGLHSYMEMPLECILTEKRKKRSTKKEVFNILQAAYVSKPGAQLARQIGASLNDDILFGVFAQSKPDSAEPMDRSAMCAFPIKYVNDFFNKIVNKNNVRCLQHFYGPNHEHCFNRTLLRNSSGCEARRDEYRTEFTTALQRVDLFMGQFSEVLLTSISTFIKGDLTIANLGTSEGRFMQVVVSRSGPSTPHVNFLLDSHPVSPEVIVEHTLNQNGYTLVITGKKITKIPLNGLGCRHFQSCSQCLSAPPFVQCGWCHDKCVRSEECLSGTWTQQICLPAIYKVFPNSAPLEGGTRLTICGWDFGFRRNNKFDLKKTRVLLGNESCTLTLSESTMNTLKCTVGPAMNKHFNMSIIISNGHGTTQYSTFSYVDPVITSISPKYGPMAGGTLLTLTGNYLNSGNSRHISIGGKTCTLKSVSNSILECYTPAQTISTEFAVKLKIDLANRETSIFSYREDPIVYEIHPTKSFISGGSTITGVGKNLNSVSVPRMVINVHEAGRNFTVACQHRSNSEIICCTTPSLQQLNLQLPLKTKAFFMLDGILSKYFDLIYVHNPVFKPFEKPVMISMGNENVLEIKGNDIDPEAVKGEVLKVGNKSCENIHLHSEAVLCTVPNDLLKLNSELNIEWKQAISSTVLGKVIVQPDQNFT

ECL signal [1]: 119 | ECL signal [2]: 49 | ECL signal [3]: 236 | ECL signal [4]: 191 | ECL signal [5]: 225 | ECL signal [6]: 252 | ECL signal [7]: 185 | ECL signal [8]: 177
B1: Fab VH1-46_IGHD6-6*01_IGHJ1*01 S102A/S103P/S104F (APF) & L6_IGKJ1*01 R24G/Q27L (Fab, V domains shown)
VH: QVQLVQSGAEVKKPGASVKVSCKASGYTFTSYYMHWVRQAPGQGLEWMGIINPSGGSTSYAQKFQGRVTMTRDTSTSTVYMELSSLRSEDTAVYYCAREEYAPFSAEYFQHWGQGTLVTVSS
VL: EIVLTQSPATLSLSPGERATLSCGASLSVSSYLAWYQQKPGQAPRLLIYDASNRATGIPARFSGSGSGTDFTLTISSLEPEDFAVYYCQQRSNWPPWTFGQGTKVEIKR
notes: Double mutant that arose inadvertently in the PCR; Fab format as for the parent (CH1 with His6/Flag tags, kappa CL); also called APF / R24G/Q27L

ECL Signal [10 nM Fab] [9]: 49000 | ELISA Signal [100 nM Fab] [10]: 0.08
B2: Fab VH1-46_IGHD6-6*01_IGHJ1*01 S102A/S103P/S104F/H111F & L6_IGKJ1*01 S28N/S30D/S31H (Fab, V domains shown)
VH: B1 VH with H111F
VL: B1 VL with G24R, L27Q, S28N, S30D, S31H
notes: Tested as a Fab expressed in E. coli; also called H:APFF & L:NDH; APFF-NDH

ECL Signal [10 nM Fab] [9]: 46700 | ELISA Signal [100 nM Fab] [10]: 0.08
B3: Fab VH1-46_IGHD6-6*01_IGHJ1*01 S102A/S103P/S104F/H111F/S54A & L6_IGKJ1*01 S28N/S30D/S31H (Fab, V domains shown)
VH: B1 VH with S54A, H111F
VL: B1 VL with G24R, L27Q, S28N, S30D, S31H
notes: also called H:APFF S54A & L:NDH

ECL Signal [10 nM Fab] [9]: 71600 | ELISA Signal [100 nM Fab] [10]: 0.2
B4: Fab VH1-46_IGHD6-6*01_IGHJ1*01 S102A/S103P/S104F/H111F/G56A & L6_IGKJ1*01 S28N/S30D/S31H (Fab, V domains shown)
VH: B1 VH with G56A, H111F
VL: B1 VL with G24R, L27Q, S28N, S30D, S31H
notes: also called H:APFF G56A & L:NDH

ECL signal [1]: 120 | ECL signal [2]: 151 | ECL signal [3]: 186 | ECL signal [4]: 144 | ECL signal [5]: 156 | ECL signal [6]: 57 | ECL signal [7]: 283 | ECL signal [8]: 56
B5: Fab VH1-46_IGHD6-6*01_IGHJ1*01 S102A/S103P/S104F (APF) & L6_IGKJ1*01 Y32V (Fab, V domains shown)
VH: B1 VH
VL: B1 VL with G24R, L27Q, Y32V
notes: Fab format as for the parent (CH1 with His6/Flag tags, kappa CL); also called APF / Y32V

ELISA (Signal-Noise) [11]: 0.09 | ECL signal [12]: 19600
B6: Fab VH5-51_IGHD5-18*01>3_IGHJ4*01 G100K/G104T G24L & V3-4_IGLJ1*01 (Fab, V domains shown)
VH: EVQLVQSGAEVKKPGESLKISCKLSGYSFTSYWIGWVRQMPGKGLEWMGIIYPGDSDTRYSPSFQGQVTISADKSISTAYLQWSSLKASDTAMYYCARRKYSYTYDYFDYWGQGTLVTVSS
VL: QTVVTQEPSFSVSPGGTVTLTCGLSSGSVSTSYYPSWYQQTPGQAPRTLIYSTNTRSSGVPDRFSGSILGNKAALTITGAQADDESDYYCVLYMGSGISYVFGTGTKVTVL
notes: Fab made in E. coli; also called KT G24L

ELISA signal [13]: 0.1 | ECL signal [14]: 64300
B7: Fab VH5-51_IGHD5-18*01>3_IGHJ4*01 G100K/G104T (KT) & V3-4_IGLJ1*01 S52C (Fab, V domains shown)
VH: B6 VH with L24G
VL: B6 VL with S52C
notes: Tested as a Fab (VH-CH1 with His and Flag tags, lambda VL-CL); also called H:KT & L:S52C

ELISA signal [15]: 0.19 | ECL signal [16]: 87400
B8: Fab VH5-51_IGHD5-18*01>3_IGHJ4*01 G100K/G104T (KT) & V3-4_IGLJ1*01 R56D (Fab, V domains shown)
VH: B6 VH with L24G
VL: B6 VL with R56D
notes: Fab; also called H:KT & L:R56D

ELISA (Signal-Noise) [17]: 0 | ECL Signal/Blank [18]: 57.7
B9: Fab VH5-51_IGHD5-18*01>3_IGHJ4*01 G100K/G104T P53A & V3-4_IGLJ1*01 (Fab, V domains shown)
VH: B6 VH with L24G, P53A
VL: B6 VL
notes: Tested as Fab; CH1 with His6/Flag tags (plasmid A) and lambda CL (plasmid E) come from the expression vectors; also called KT P53A

ELISA (Signal-Noise) [11]: 0.06 | ECL signal [12]: 4200
B10: Fab VH5-51_IGHD5-18*01>3_IGHJ4*01 G100K/G104T G24R & V3-4_IGLJ1*01 (Fab, V domains shown)
VH: B6 VH with L24R
VL: B6 VL
notes: Fab made in E. coli; also called KT G24R

ELISA signal [15]: 0.19 | ECL signal [16]: 93700
B11: Fab VH5-51_IGHD5-18*01>3_IGHJ4*01 G100K/G104T (KT) & V3-4_IGLJ1*01 R56G (Fab, V domains shown)
VH: B6 VH with L24G
VL: B6 VL with R56G
notes: Fab; also called H:KT & L:R56G

ELISA signal [13]: 0.15 | ECL signal [14]: 85900
B12: Fab VH5-51_IGHD5-18*01>3_IGHJ4*01 G100K/G104T (KT) & V3-4_IGLJ1*01 S52R (Fab, V domains shown)
VH: B6 VH with L24G
VL: B6 VL with S52R
notes: Tested as a Fab (VH-CH1 with His and Flag tags, lambda VL-CL); also called H:KT & L:S52R

ELISA (Signal-Noise) [17]: 0.02 | ECL Signal/Blank [18]: 40.9
B13: Fab VH5-51_IGHD5-18*01>3_IGHJ4*01 G100K/G104T I50A & V3-4_IGLJ1*01 (Fab, V domains shown)
VH: B6 VH with L24G, I50A
VL: B6 VL
notes: Tested as Fab; CH1 with His6/Flag tags (plasmid A) and lambda CL (plasmid E) come from the expression vectors; also called KT I50A

ELISA signal [13]: 0.13 | ECL signal [14]: 94300
B14: Fab VH5-51_IGHD5-18*01>3_IGHJ4*01 G100K/G104T (KT) & V3-4_IGLJ1*01 R56I (Fab, V domains shown)
VH: B6 VH with L24G
VL: B6 VL with R56I
notes: Tested as a Fab (VH-CH1 with His and Flag tags, lambda VL-CL); also called H:KT & L:R56I

ELISA signal [15]: 0.27 | ELISA signal [19]: 0.227 | ELISA signal [20]: 0.239 | ELISA signal [21]: 0.251 | ELISA signal [22]: 0.212 | ELISA signal [23]: 0.2 | ELISA signal [24]: 0.213 | ECL signal [16]: 83900
B15: Fab VH5-51_IGHD5-18*01>3_IGHJ4*01 G100K/G104T (KT) & V3-4_IGLJ1*01 R56A (Fab, V domains shown)
VH: B6 VH with L24G
VL: B6 VL with R56A
notes: Fab; also called H:KT & L:R56A

ELISA (Signal-Noise) [17]: 0.01 | ECL Signal/Blank [18]: 30.6
B16: Fab VH5-51_IGHD5-18*01>3_IGHJ4*01 G100K/G104T I51A & V3-4_IGLJ1*01 (Fab, V domains shown)
VH: B6 VH with L24G, I51A
VL: B6 VL
notes: Tested as Fab; CH1 with His6/Flag tags (plasmid A) and lambda CL (plasmid E) come from the expression vectors; also called KT I51A

ELISA (Signal-Noise) [11]: 0.28 | ECL signal [12]: 32300
B17: Fab VH5-51_IGHD5-18*01>3_IGHJ4*01 G100K/G104T S28K & V3-4_IGLJ1*01 (Fab, V domains shown)
VH: B6 VH with L24G, S28K
VL: B6 VL
notes: Fab made in E. coli; also called KT S28K
